According to the Immune Epitope Database (IEDB):

How the values were obtained:
Experiment in all cases: IEDB peptide-MHC binding, purified MHC/competitive/radioactivity; filed as Kd, often an IC50 or EC50 that approximates it; ≥ and ≤ were set here for values at or beyond the usual limits of such assays
HLA-A*31:01 = target: HLA-A*31:01
HLA-A*03:01 = target: HLA-A*03:01
HLA-A*11:01 = target: HLA-A*11:01
HLA-A*68:01 = target: HLA-A*68:01
HLA-A*33:01 = target: HLA-A*33:01
[1] = source organism: Vaccinia virus WR
[2] = source organism: Lassa virus Josiah
[3] = source organism: Dengue virus 1 Brazil/97-11/1997
[4] = source organism: Mammarenavirus machupoense
[5] = source organism: Dengue virus 3 Martinique/1243/1999
[6] = source organism: SARS coronavirus Tor2
[7] = source organism: Mammarenavirus lassaense
[8] = source organism: Vaccinia virus Copenhagen
[9] = source organism: Dengue virus 2 Jamaica/1409/1983
[10] = source organism: Mammarenavirus juninense

Sequence | Kd (HLA-A*31:01; [1]) [nM] | Kd (HLA-A*03:01; [1]) [nM] | Kd (HLA-A*11:01; [1]) [nM] | Kd (HLA-A*68:01; [1]) [nM] | Kd (HLA-A*33:01; [1]) [nM] | other results
RLTDTEYRAR | 1.33 | 667 | 794 | 822 | 469 | 
YILQLIRHGR | 40.2 | 11200 | ≥ 27400 | 10.3 | 256 | 
AMSCDFNGGK |  |  |  |  |  | Kd (HLA-A*31:01; [2]): ≥ 30000 nM; Kd (HLA-A*03:01; [2]): 2000 nM; Kd (HLA-A*11:01; [2]): 273 nM; Kd (HLA-A*68:01; [2]): ≥ 26700 nM; Kd (HLA-A*33:01; [2]): ≥ 24200 nM
ISEKETLNEY | ≥ 45800 | ≥ 70100 | 3000 | ≥ 35000 | ≥ 55600 | 
KAIITPVVFY | ≥ 70000 | 7470 | 900 | 6700 | ≥ 70000 | 
PSRSKMLKR | 1890 | 16.4 | 5560 | ≥ 77700 | ≥ 51600 | 
KALMQLTTK | 135 | 181 | 87.9 | 5800 | 18600 | 
HAIGTSITQK |  |  |  |  |  | Kd (HLA-A*68:01; [3]): 34.5 nM
ETLTSVFQK |  |  |  |  |  | Kd (HLA-A*11:01; source organism: Homo sapiens): 11 nM
TCNDHYLCLR |  |  |  |  |  | Kd (HLA-A*31:01; [4]): 123 nM; Kd (HLA-A*03:01; [4]): ≥ 33300 nM; Kd (HLA-A*11:01; [4]): ≥ 61800 nM; Kd (HLA-A*68:01; [4]): 2210 nM; Kd (HLA-A*33:01; [4]): 718 nM
PFLALGFFLR |  |  |  |  |  | Kd (HLA-A*31:01; [5]): 186 nM; Kd (HLA-A*33:01; [5]): 286 nM
WIMLLQFAY |  |  |  |  |  | Kd (HLA-A*31:01; [6]): 5330 nM; Kd (HLA-A*03:01; [6]): 4090 nM; Kd (HLA-A*11:01; [6]): 14100 nM; Kd (HLA-A*68:01; [6]): ≥ 23000 nM; Kd (HLA-A*33:01; [6]): ≥ 77700 nM
SARNKLFKR | 1.25 | ≥ 58700 | 5710 | 441 | 69.6 | 
SGSCLNNEK |  |  |  |  |  | Kd (HLA-A*31:01; [7]): ≥ 60900 nM; Kd (HLA-A*03:01; [7]): ≥ 20300 nM; Kd (HLA-A*11:01; [7]): 556 nM; Kd (HLA-A*68:01; [7]): 876 nM; Kd (HLA-A*33:01; [7]): ≥ 59800 nM
SLAIKNYYRK |  |  |  |  |  | Kd (HLA-A*31:01; [8]): 297 nM; Kd (HLA-A*03:01; [8]): 35.3 nM; Kd (HLA-A*11:01; [8]): 10.6 nM; Kd (HLA-A*68:01; [8]): 1770 nM; Kd (HLA-A*33:01; [8]): 1180 nM
LMSGRGIGK |  |  |  |  |  | Kd (HLA-A*03:01; source organism: Dengue virus 2 Peru/IQT2913/1996): 48 nM
LIPLSEMVVK | 7380 | 766 | 55.2 | 1490 | ≥ 24900 | 
ETLGEKWKR |  |  |  |  |  | Kd (HLA-A*68:01; [3]): 69.2 nM; Kd (HLA-A*33:01; [3]): 13.4 nM
FMTLVPVLEK | 73.3 | 82.6 | 3.96 | 2 | 20 | 
KSSQRDTILK |  |  |  |  |  | Kd (HLA-A*11:01; source organism: Mammarenavirus brazilense): 33.2 nM

Sequence | Kd (HLA-A*31:01; [1]) [nM] | Kd (HLA-A*03:01; [1]) [nM] | Kd (HLA-A*11:01; [1]) [nM] | Kd (HLA-A*68:01; [1]) [nM] | Kd (HLA-A*33:01; [1]) [nM] | other results
ISSVQLSNNK | 4420 | 943 | 121 | 1280 | 3000 | 
RIGTAATKR | 17.2 | 180 | 2420 | 325 | ≥ 77700 | 
TILIKVEYK |  |  |  |  |  | Kd (HLA-A*11:01; [5]): 1250 nM
GTIAGGVCY | ≥ 62600 | 4070 | 69.7 | 7900 | ≥ 77700 | 
TQMRTPLHK | 3520 | 1180 | 78 | 8960 | ≥ 77700 | 
QLCYCPASKK | 12500 | 170 | 96.2 | 468 | ≥ 59500 | 
SSFDYCGVNH |  |  |  |  |  | Kd (HLA-A*31:01; [4]): 1970 nM; Kd (HLA-A*03:01; [4]): 8190 nM; Kd (HLA-A*11:01; [4]): 4840 nM; Kd (HLA-A*68:01; [4]): 492 nM; Kd (HLA-A*33:01; [4]): 6430 nM
RLYECLYRNR |  |  |  |  |  | Kd (HLA-A*31:01; [6]): 2.08 nM; Kd (HLA-A*03:01; [6]): 6.91 nM; Kd (HLA-A*11:01; [6]): 596 nM; Kd (HLA-A*68:01; [6]): 229 nM; Kd (HLA-A*33:01; [6]): 2460 nM
TIDKSSPLY | ≥ 53700 | 65.2 | 81.7 | 206 | ≥ 77700 | 
LILNFLDWIK | 163 | 25.1 | 9.27 | 165 | 7300 | 
NMSFRDLGR |  |  |  |  |  | Kd (HLA-A*33:01; [9]): 8.95 nM
SMGFKVTTR | 1.94 | 5010 | 4730 | 1270 | 166 | 
ISQGAGWSLR |  |  |  |  |  | Kd (HLA-A*31:01; [5]): 8.62 nM
NSINNQLMY | ≥ 77900 | 4650 | 132 | 104 | ≥ 77700 | 
PLLCNLNKSH |  |  |  |  |  | Kd (HLA-A*31:01; [10]): ≥ 70000 nM; Kd (HLA-A*03:01; [10]): ≥ 70000 nM; Kd (HLA-A*11:01; [10]): ≥ 69700 nM; Kd (HLA-A*68:01; [10]): ≥ 45800 nM; Kd (HLA-A*33:01; [10]): ≥ 70000 nM
FISDNKKEYK | 118 | 1880 | 47.5 | 11.3 | 1050 | 
QIDRLEDLSK | 6790 | 1450 | 255 | 2310 | 14700 | 
YLALLAAFK |  |  |  |  |  | Kd (HLA-A*03:01; [9]): 1.32 nM; Kd (HLA-A*68:01; [9]): 18.4 nM
EFCVDHPFIY | ≥ 37600 | ≥ 70100 | 11000 | ≥ 54700 | ≥ 44400 | 
LILSNKLLY | 5630 | 13.7 | 192 | 5470 | 13200 | 
